Experimental data reported in patent publication US20140179896A1 (published 2014).

Tests used:
[1] = target: T1, mouse vascular endothelial growth factor receptor-2 Fc chimera (Flk-1-Fc) (mouse, UniProt P35918 20-762); assay: clones from the 159Q(8)L library; binding per FIG. 4
T1 construct: Purchased from R&D Systems; also called mouse VEGF-R2; not shown: Fc part of the purchased chimera
Experimental: (§1) To prepare ³⁵S-labeled binding proteins for analysis, mRNA was prepared as described above for RNA-protein fusion production but the linker ligation step was omitted. The mRNA was expressed using rabbit reticulocyte lysate translation kit (Ambion) in the presence of ³⁵S-labeled Met at 30° C. for 1 hour. Expressed protein was purified on M2-agarose Flag beads (Sigma) as described above. This procedure produced the encoded protein without the nucleic acid tail. In a direct binding assay, VEGF-R2-Fc fusions in concentrations ranging from 0 to 200 nM were added to a constant concentration of the purified protein (0.2 or 0.5 nM) and incubated at 30° C. for 1 hour in buffer B. The receptor-binder complexes were captured using Protein A magnetic beads for another 10 minutes at room temperature using a Kingfisher™ The beads were washed with six reaction volumes of buffer B. The protein was eluted from the beads with 100 μL of 0.1 M KOH. […] of the reaction mixture and elution were dried onto a LumaPlate-96 (Packard) and the amount of ³⁵S on the plate was measured using a TopCount NXT instrument (Packard). The amount of fibronectin-based scaffold protein bound to the target was estimated as a percent of radioactivity eluted from Protein A magnetic beads compare to radioactivity in the reaction mixture. Nonspecific binding of fibronectin-based scaffold proteins to the beads was determined by measuring binding in the absence of KDR-Fc and represented less than 1-2% of the input. Specific binding was obtained through subtraction of nonspecific binding from total binding. Data was analyzed using the GraphPad Prizm software (GraphPad Software, Inc, San Diego, Calif.), fitted using a one site, non-linear binding equation.
T1 sequence (P35918 20-762, change not shown): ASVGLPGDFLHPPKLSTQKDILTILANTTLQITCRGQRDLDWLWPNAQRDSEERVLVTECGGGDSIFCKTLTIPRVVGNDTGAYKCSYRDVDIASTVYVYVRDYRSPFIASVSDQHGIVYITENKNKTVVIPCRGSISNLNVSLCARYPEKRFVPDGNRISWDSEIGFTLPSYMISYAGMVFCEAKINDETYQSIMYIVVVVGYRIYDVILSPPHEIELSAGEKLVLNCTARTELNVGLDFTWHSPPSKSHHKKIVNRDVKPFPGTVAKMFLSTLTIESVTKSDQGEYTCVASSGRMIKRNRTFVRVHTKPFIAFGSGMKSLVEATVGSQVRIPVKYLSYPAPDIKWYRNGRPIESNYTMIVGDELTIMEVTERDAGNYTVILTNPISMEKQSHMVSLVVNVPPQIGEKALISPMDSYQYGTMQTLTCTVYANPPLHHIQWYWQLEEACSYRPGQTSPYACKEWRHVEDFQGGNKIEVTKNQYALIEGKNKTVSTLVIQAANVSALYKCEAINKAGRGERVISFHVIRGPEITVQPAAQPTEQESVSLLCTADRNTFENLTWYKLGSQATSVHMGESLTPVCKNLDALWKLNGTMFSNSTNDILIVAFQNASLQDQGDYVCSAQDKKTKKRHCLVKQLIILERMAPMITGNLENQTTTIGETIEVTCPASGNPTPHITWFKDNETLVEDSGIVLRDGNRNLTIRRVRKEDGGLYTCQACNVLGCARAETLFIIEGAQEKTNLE

[2] = target: T2, mouse vascular endothelial growth factor receptor-2 Fc chimera (Flk-1-Fc) (mouse, UniProt P35918 20-762); assay: SPR (BIAcore), target immobilized
T2 construct: purchased from R&D Systems; also called mouse VEGF-R2-Fc; not shown: Fc part of the purchased chimera
Experimental: In vitro affinity measurements were made using surface plasmon resonance (SPR) (BIAcore) with both the human and mouse VEGF-receptor target proteins immobilized via amide chemistry on the BIAcore chip.
The binding kinetics of fibronectin-based scaffold proteins binding proteins to the target was measured using BIAcore 2000 biosensor (Pharmacia Biosensor). Human and mouse VEGF-R2-Fc fusions were immobilized onto a CM5 sensor chip and soluble binding proteins were injected at concentrations ranging from 0 to 100 nM in buffer 0 (10 mM HEPES, 150 mM NaCl, 0.005% Tween 20, pH 7.4). Sensorgrams were obtained at each concentration and were evaluated using a program, BIA Evaluation 2.0 (BIAcore), to determine the rate constants kₐ (kₒₙ) and kd (koff.) The affinity constant, KD was calculated from the ratio of rate constants […].
T2 sequence (P35918 20-762, change not shown): as above

[3] = target: T3, human vascular endothelial growth factor receptor-2 Fc chimera (KDR-Fc) (human, UniProt P35968 20-764); assay: radioactive equilibrium binding (assay not given)
T3 construct: range 1-764; also called human VEGFR-2; hKDR; not shown: human IgG1 Fc
Experimental: as §1
T3 sequence (P35968 20-764 limits assumed, change not shown, form in doubt): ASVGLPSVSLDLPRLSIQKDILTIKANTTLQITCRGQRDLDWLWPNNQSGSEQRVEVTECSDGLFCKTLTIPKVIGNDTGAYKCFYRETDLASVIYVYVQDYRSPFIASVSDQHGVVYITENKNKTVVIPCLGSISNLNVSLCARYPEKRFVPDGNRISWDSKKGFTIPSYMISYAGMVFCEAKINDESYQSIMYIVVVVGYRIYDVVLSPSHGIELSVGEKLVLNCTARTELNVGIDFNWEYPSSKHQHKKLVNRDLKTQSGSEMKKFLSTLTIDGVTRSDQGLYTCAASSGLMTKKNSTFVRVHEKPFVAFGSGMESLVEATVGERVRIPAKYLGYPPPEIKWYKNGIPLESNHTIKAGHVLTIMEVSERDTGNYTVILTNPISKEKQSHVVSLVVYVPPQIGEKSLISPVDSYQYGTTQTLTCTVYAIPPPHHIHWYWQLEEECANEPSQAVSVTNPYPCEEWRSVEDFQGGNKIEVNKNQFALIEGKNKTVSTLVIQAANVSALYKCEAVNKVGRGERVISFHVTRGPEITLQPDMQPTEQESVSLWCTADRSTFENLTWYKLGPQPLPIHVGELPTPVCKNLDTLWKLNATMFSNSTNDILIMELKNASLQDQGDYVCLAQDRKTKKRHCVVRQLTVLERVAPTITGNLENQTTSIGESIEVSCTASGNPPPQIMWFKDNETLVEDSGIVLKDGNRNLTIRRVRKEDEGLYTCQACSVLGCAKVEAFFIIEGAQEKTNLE

[4] = target: T1, mouse vascular endothelial growth …; assay: radioactive equilibrium binding (assay not given)
Experimental: as §1

[5] = target: T3, human vascular endothelial growth …; assay: binding to 1 nM KDR-Fc, % of input; radioactive equilibrium binding (assay not given)
Experimental: as §1

[6] = target: T1, mouse vascular endothelial growth …; assay: binding to 1 nM Flk-1-Fc, % of input; radioactive equilibrium binding (assay not given)
Experimental: as §1

[7] = target: T4, human vascular endothelial growth factor receptor-2 Fc chimera (KDR-Fc) (human, UniProt P35968 20-764); assay: radioactive equilibrium binding assay, KDR-Fc
T4 construct: range 1-764; purchased from R&D Systems; also called hKDR; human VEGF-R2-Fc; not shown: human IgG1 Fc
Experimental: as §1
T4 sequence (P35968 20-764 limits assumed, change not shown, form in doubt): as above

[8] = target: T5, human vascular endothelial growth factor receptor-2 Fc chimera (KDR-Fc) (human, UniProt P35968 20-764); assay: radioactive equilibrium binding assay, KDR-Fc
T5 construct: range 1-764; also called human VEGFR-2; not shown: human IgG1 Fc
Experimental: as §1
T5 sequence (P35968 20-764 limits assumed, change not shown, form in doubt): as above

[9] = target: T6, mouse vascular endothelial growth factor receptor-2 Fc chimera (Flk-1-Fc) (mouse, UniProt P35918 20-762); assay: radioactive equilibrium binding assay, Flk-1-Fc
T6 construct: Bought from R&D Systems; also called mouse VEGFR-2; not shown: Fc part of the purchased chimera, not specified
Experimental: as §1
T6 sequence (P35918 20-762, change not shown): as the sequence (P35918 20-762, change not shown) above

[10] = target: T5, human vascular endothelial growth …; assay: radioactive equilibrium binding assay, 1 nM KDR-Fc, % of input bound
Procedure, shortened: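 ³⁵S-Met-labeled binder protein, made by reticulocyte-lysate translation and Flag-purified, held at 0.2 or 0.5 nM with receptor-Fc (0–200 nM) for 1 h at 30° C in buffer B. Complexes captured on Protein A beads, washed, KOH-eluted. Bound signal given as % of input radioactivity minus bead-only background; one-site fit.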

[11] = target: T6, mouse vascular endothelial growth …; assay: radioactive equilibrium binding assay, 1 nM Flk-1-Fc, % of input bound
Procedure, shortened: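 Receptor-Fc fusions titrated from 0 to 200 nM against a fixed 0.2 or 0.5 nM of ³⁵S-labeled scaffold protein for 1 h at 30° C. Protein A bead pull-down followed by scintillation counting of eluate versus reaction mixture. Specific binding is total minus no-receptor binding, fitted to a one-site nonlinear equation.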

B1: M3 (designed binder)
chain: VSDVPRDLEVVAATPTSLLISWRHPHFPTRYYRITYGETGGNSPVQEFTVPLQPPAATISGLKPGVDYTITGYAVTKERNGRELFTPISINYRT
notes: 10Fn3 clone with WT N-terminus; Tags not included
[1]
  binding result: binds

B2: M6 (designed binder)
chain: VSDVPRDLEVVAATPTSLLISWRHPHFPTHYYRITYGETGGNSPVQEFTVPLQPPAATISGLKPGVDYTITGYAVTLERDGRELFTPISINYRT
notes: as for B1
[1]
  binding result: binds

B3: M7 (designed binder)
chain: VSDVPRDLEVVAATPTSLLISWRHPHFPTRYYRITYGETGGNSPVQEFTVPLQPTTATISGLKPGVDYTITGYAVTWERNGRELFTPISINYRT
notes: as for B1
[1]
  binding result: binds

B4: M4 (designed binder)
chain: VSDVPRDLEVVAATPTSLLISWRHPHFPTHYYRITYGETGGNSPVQEFTVPLQPPAATISGLKPGVDYTITGYAVTTERTGRELFTPISINYRT
notes: as for B1
[1]
  binding result: binds

B5: M2 (designed binder)
chain: VSDVPRDLEVVAATPTSLLISWRHPHFPTRYYRITYGETGGNSPVQEFTVPLQPPAATISGLKPGVDYTITGYAVTWERNGRELFTPISINYRT
notes: as for B1
[1]
  binding result: binds

B6: M1 (designed binder)
chain: VSDVPRDLEVVAATPTSLLISWRHPHFPTRYYRITYGETGGNSPVQEFTVPLQPTVATISGLKPGVDYTITGYAVTLERNDRELFTPISINYRT
notes: as for B1
[1]
  binding result: binds

B7: M5FL-PEG40 (designed binder)
chain: MGVSDVPRDLEVVAATPTSLLISWRHPHFPTRYYRITYGETGGNSPVQEFTVPLQPPLATISGLKPGVDYTITVYAVTKERNGRELFTPISINYRTEIDKPCQHHHHHH
modifications: branched 40 kD PEG coupled by maleimide chemistry to the cysteine residue at position 100
notes: also called M5FL 40K PEG
[2]
  Kd: 57.1 nM
  koff: 0.00054 s⁻¹
  kon: 10000 M⁻¹ s⁻¹

B8: E5 (designed binder)
chain: EVVAATPTSLLISWRHPHFPTRYYRITYGETGGNSPVQEFTVPLQPPTATISGLKPGVDYTITGYAVTDGQNGRLLNVPISINYRT
notes: Del 1-8 10Fn3 clone; Flag tag of the radioactive-assay form not included
[3]
  Kd: 0.4 nM
[4]
  Kd: 3.2 nM
[5]
  Binding to 1 nM KDR, %: 26%
[6]
  Binding to 1 nM FLK, %: 10%

B9: K14 (designed binder)
chain: EVVAATPTSLLISWRHPHFPTRYYRITYGETGGNSPVQEFTVPLQPPTATISGLKPGVDYTITGYAVTREENDHELLIPISINYRT
notes: tag left out
[7]
  Kd: < 0.6 nM

B10: E29 (designed binder)
chain: EVVAATPTSLLISWRHPHFPTRYYRITYGETGGNSPVQEFTVPLQPPTATISGLKPGVDYTITGYAVTVERNGRVLMTPISINYRT
notes: 10Fn3 clone, Del 1-8
[8]
  Kd: 1.51 nM
[9]
  Kd: 0.91 nM
[10]
  Binding to 1 nM KDR, %: 41%
[11]
  Binding to 1 nM Flk-1, %: 44%

B11: E25 (designed binder)
chain: EVVAATPTSLLISWRHPHFPTRYYRITYGETGGNSPVQEFTVPLQPPTATISGLKPGVDYTITGYAVTLERNGRELMTPISINYRT
notes: as for B8
[3]
  Kd: 1.58 nM
[4]
  Kd: 1.3 nM
[5]
  Binding to 1 nM KDR, %: 41%
[6]
  Binding to 1 nM FLK, %: 28%

B12: E28 (designed binder)
chain: EVVAATPTSLLISWRHPHFPTRYYRITYGETGGNSPVQEFTVPLQPPTATISGLKPGVDYTITGYAVTLERNGRELMVPISINYRT
notes: as for B8
[3]
  Kd: 1.63 nM
[4]
  Kd: 2.1 nM
[5]
  Binding to 1 nM KDR, %: 19%
[6]
  Binding to 1 nM FLK, %: 21%

B13: K13 (designed binder)
chain: EVVAATPTSLLISWRHPHFPTRYYRITYGETGGNSPVQEFTVPLQPPTATISGLKPGVDYTITGYAVTLALKGHELLTPISINYRT
notes: tag left out
[7]
  Kd: < 0.6 nM

B14: K15 (designed binder)
chain: EVVAATPTSLLISWRHPHFPTRYYRITYGETGGNSPVQEFTVPLQPPTATISGLKPGVDYTITGYAVTEVHHDREIKTPISINYRT
notes: tag left out
[7]
  Kd: < 0.4 nM

B15: E28 (designed binder)
chain: EVVAATPTSLLISWRHPHFPTRYYRITYGETGGNSPVQEFTVPLQPPTATISGLKPGVDYTITGYAVTLERNGRELMVPISINYRT
notes: 10Fn3 clone, Del 1-8
[8]
  Kd: 1.63 nM
[9]
  Kd: 2.1 nM
[10]
  Binding to 1 nM KDR, %: 19%
[11]
  Binding to 1 nM Flk-1, %: 21%

B16: E9 (designed binder)
chain: EVVAATPTSLLISWRHPHFPTRYYRITYGETGGNSPVQEFTVPLQPPTATISGLKPGVDYTITGYAVTEERNGRTLRTPISINYRT
notes: as for B8
[3]
  Kd: 2.37 nM
[4]
  Kd: 1.4 nM
[5]
  Binding to 1 nM KDR, %: 24%
[6]
  Binding to 1 nM FLK, %: 34%

B17: K10 (designed binder)
chain: EVVAATPTSLLISWRHPHFPTRYYRITYGETGGNSPVQEFTVPLQPPTATISGLKPGVDYTITGYAVTTGPNDRLLFVPISINYRT
notes: tag left out
[7]
  Kd: < 0.6 nM

B18: K12 (designed binder)
chain: EVVAATPTSLLISWRHPHFPTRYYRITYGETGGNSPVQEFTVPLQPPTATISGLKPGVDYTITGYAVTDVYNDHEIKTPISINYRT
notes: tag left out
[7]
  Kd: < 0.6 nM

B19: K1 (designed binder)
chain: EVVAATPTSLLISWRHPHFPTRYYRITYGETGGNSPVQEFTVPLQPPTATISGLKPGVDYTITGYAVTMGLYGHELLTPISINYRT
notes: tag left out
[7]
  Kd: < 0.6 nM

B20: K6 (designed binder)
chain: EVVAATPTSLLISWRHPHFPTRYYRITYGETGGNSPVQEFTVPLQPPTATISGLKPGVDYTITGYAVTDGKDGRVLLTPISINYRT
notes: tag left out
[7]
  Kd: < 0.9 nM

B21: K9 (designed binder)
chain: EVVAATPTSLLISWRHPHFPTRYYRITYGETGGNSPVQEFTVPLQPPTATISGLKPGVDYTITGYAVTFGLYGKELLIPISINYRT
notes: tag left out
[7]
  Kd: < 1.8 nM

B22: E3 (designed binder)
chain: EVVAATPTSLLISWRHPHFPTRYYRITYGETGGNSPVQEFTVPLQPPTATISGLKPGVDYTITGYAVTDGRNDRKLMVPISINYRT
notes: as for B8
[3]
  Kd: 0.96 nM
[4]
  Kd: 5.4 nM
[5]
  Binding to 1 nM KDR, %: 37%
[6]
  Binding to 1 nM FLK, %: 14%

B23: E25 (designed binder)
chain: EVVAATPTSLLISWRHPHFPTRYYRITYGETGGNSPVQEFTVPLQPPTATISGLKPGVDYTITGYAVTLERNGRELMTPISINYRT
notes: 10Fn3 clone, Del 1-8
[8]
  Kd: 1.58 nM
[9]
  Kd: 1.3 nM
[10]
  Binding to 1 nM KDR, %: 41%
[11]
  Binding to 1 nM Flk-1, %: 28%
